Source: paper PMC10397247
Each block holds one binder with its values, some of them ahead of it.

Legend:
APC6108-AA = target: T1, APC6108-AA; assay: two-hybrid library CCmax;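 also: natural log of median RNA to DNA barcode read ratio; higher means stronger binding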
T1 chain: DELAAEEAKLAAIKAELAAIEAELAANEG

APC7099-AA = target: T2, APC7099-AA; assay: two-hybrid library CCmax; conditions: mean of both orientations;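 also: natural log of median RNA to DNA barcode read ratio; higher means stronger binding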
T2 chain: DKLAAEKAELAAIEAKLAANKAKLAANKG

APC8191-AA = target: T3, APC8191-AA; assay: two-hybrid library CCmax; conditions: mean of both orientations;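 also: natural log of median RNA to DNA barcode read ratio; higher means stronger binding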
T3 chain: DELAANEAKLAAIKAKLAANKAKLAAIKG

APC8910-AA = target: T4, APC8910-AA; assay: two-hybrid library CCmax; conditions: mean of both orientations;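 also: natural log of median RNA to DNA barcode read ratio; higher means stronger binding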
T4 chain: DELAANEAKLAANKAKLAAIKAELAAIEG

APC9096-AA = target: T5, APC9096-AA; assay: two-hybrid library CCmax; conditions: mean of both orientations;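 also: natural log of median RNA to DNA barcode read ratio; higher means stronger binding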
T5 chain: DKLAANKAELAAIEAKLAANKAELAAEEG

APC9319-AA = target: T6, APC9319-AA; assay: two-hybrid library CCmax; conditions: mean of both orientations;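 also: natural log of median RNA to DNA barcode read ratio; higher means stronger binding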
T6 chain: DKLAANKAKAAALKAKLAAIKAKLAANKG

4H780-bN = target: T7, 4H780-bN; assay: two-hybrid library CCNG1
T7 chain: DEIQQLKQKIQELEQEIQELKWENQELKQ

4H797-bN = target: T8, 4H797-bN; assay: two-hybrid library CCNG1
T8 chain: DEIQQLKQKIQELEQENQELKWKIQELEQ

4H855-bN = target: T9, 4H855-bN; assay: two-hybrid library CCNG1
T9 chain: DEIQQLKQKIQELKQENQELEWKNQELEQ

4H918-bN = target: T10, 4H918-bN; assay: two-hybrid library CCNG1
T10 chain: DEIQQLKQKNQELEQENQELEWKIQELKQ

4H953-bN = target: T11, 4H953-bN; assay: two-hybrid library CCNG1
T11 chain: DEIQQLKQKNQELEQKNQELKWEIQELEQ

4H968-bN = target: T12, 4H968-bN; assay: two-hybrid library CCNG1
T12 chain: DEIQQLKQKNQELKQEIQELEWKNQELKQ

APC542-AA = target: T13, APC542-AA; assay: two-hybrid library CCmax
T13 chain: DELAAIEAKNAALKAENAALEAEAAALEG

APC5531-AA = target: T14, APC5531-AA; assay: two-hybrid library CCmax; conditions: mean of both orientations
T14 chain: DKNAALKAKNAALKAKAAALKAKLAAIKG

APC6088-AA = target: T15, APC6088-AA; assay: two-hybrid library CCmax; conditions: mean of both orientations
T15 chain: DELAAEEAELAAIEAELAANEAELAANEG

APC7524-AA = target: T16, APC7524-AA; assay: two-hybrid library CCmax; conditions: mean of both orientations
T16 chain: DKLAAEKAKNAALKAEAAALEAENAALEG

APC8401-AA = target: T17, APC8401-AA; assay: two-hybrid library CCmax; conditions: mean of both orientations
T17 chain: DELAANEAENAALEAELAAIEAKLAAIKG

APC8516-AA = target: T18, APC8516-AA; assay: two-hybrid library CCmax; conditions: mean of both orientations
T18 chain: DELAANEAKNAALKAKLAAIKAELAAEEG

APC9141-AA = target: T19, APC9141-AA; assay: two-hybrid library CCmax; conditions: mean of both orientations
T19 chain: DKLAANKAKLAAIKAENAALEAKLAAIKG

APC9182-AA = target: T20, APC9182-AA; assay: two-hybrid library CCmax; conditions: mean of both orientations
T20 chain: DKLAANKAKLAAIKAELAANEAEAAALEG

APC9291-AA = target: T21, APC9291-AA; assay: two-hybrid library CCmax; conditions: mean of both orientations
T21 chain: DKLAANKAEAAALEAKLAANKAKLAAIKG

APC9806-AA = target: T22, APC9806-AA; assay: two-hybrid library CCmax; conditions: mean of both orientations
T22 chain: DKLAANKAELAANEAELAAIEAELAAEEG

4H741-bA = target: T23, 4H741-bA; assay: two-hybrid library CCNG1
T23 chain: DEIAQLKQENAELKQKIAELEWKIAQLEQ

4H780-bA = target: T24, 4H780-bA; assay: two-hybrid library CCNG1
T24 chain: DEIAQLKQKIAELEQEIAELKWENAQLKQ

4H797-bA = target: T25, 4H797-bA; assay: two-hybrid library CCNG1
T25 chain: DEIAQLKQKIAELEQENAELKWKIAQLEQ

4H855-bA = target: T26, 4H855-bA; assay: two-hybrid library CCNG1
T26 chain: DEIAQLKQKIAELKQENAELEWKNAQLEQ

4H918-bA = target: T27, 4H918-bA; assay: two-hybrid library CCNG1
T27 chain: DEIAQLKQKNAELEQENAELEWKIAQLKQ

4H953-bA = target: T28, 4H953-bA; assay: two-hybrid library CCNG1
T28 chain: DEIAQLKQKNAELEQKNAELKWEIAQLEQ

4H968-bA = target: T29, 4H968-bA; assay: two-hybrid library CCNG1
T29 chain: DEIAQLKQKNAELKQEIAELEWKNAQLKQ

4H510-AA = target: T30, 4H510-AA; assay: two-hybrid library CCmax
T30 chain: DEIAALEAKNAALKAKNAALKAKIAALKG

4H775-AA = target: T31, 4H775-AA; assay: two-hybrid library CCmax; conditions: mean of both orientations
T31 chain: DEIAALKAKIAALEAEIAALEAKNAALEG

4H816-AA = target: T32, 4H816-AA; assay: two-hybrid library CCmax; conditions: mean of both orientations
T32 chain: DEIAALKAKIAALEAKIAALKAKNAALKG

4H87-AA = target: T33, 4H87-AA; assay: two-hybrid library CCmax; conditions: mean of both orientations
T33 chain: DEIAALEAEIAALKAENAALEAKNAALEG

4H_APH = target: T34, 4H_APH; assay: two-hybrid library CCmax; conditions: mean of both orientations
T34 chain: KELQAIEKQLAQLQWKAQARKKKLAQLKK

4H_BCR = target: T35, 4H_BCR; assay: two-hybrid library CCmax; conditions: mean of both orientations
T35 chain: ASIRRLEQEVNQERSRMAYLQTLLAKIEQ

4H_GCN4 = assay: two-hybrid library CCmax; conditions: mean of both orientations
GCN2_T = assay: two-hybrid library CCmax
O11-AA = target: T36, O11-AA; assay: two-hybrid library CCmax
T36 chain: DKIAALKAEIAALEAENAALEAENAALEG

O13-AA = target: T37, O13-AA; assay: two-hybrid library CCmax; conditions: mean of both orientations
T37 chain: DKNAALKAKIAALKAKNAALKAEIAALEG

O14-AA = target: T38, O14-AA; assay: two-hybrid library CCmax; conditions: mean of both orientations
T38 chain: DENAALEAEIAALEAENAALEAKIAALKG

4H_GCN4, sequence (chain, as listed by the source): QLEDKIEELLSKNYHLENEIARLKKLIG

interaction score (APC6108-AA): -1.61
interaction score (APC7099-AA): -1.52
interaction score (APC8191-AA): -1.6
interaction score (APC8910-AA): -2.2
interaction score (APC9096-AA): -1.73
interaction score (APC9319-AA): -1.1
Binder: DELAAEEAKLAAIKAELAAIEAELAANEG [APC6108-AA]

interaction score (4H780-bN): 1.99
interaction score (4H797-bN): -0.0265
interaction score (4H855-bN): -0.732
interaction score (4H918-bN): -0.346
interaction score (4H953-bN): -0.748
interaction score (4H968-bN): -2.05
Binder: DEIQQLKQKIQELEQEIQELKWENQELKQ [4H780-bN]

interaction score (APC542-AA): -1.57
interaction score (APC5531-AA): -1.88
interaction score (APC6088-AA): -2.13
interaction score (APC7524-AA): -2
interaction score (APC8401-AA): -1.89
interaction score (APC8516-AA): -1.5
interaction score (APC9141-AA): -1.64
interaction score (APC9182-AA): -1.84
interaction score (APC9291-AA): -1.54
interaction score (APC9806-AA): -1.91
Binder: DELAAIEAKNAALKAENAALEAEAAALEG [APC542-AA]

Second part, the binder before the results:

Binder: DEIAQLKQENAELKQKIAELEWKIAQLEQ [4H741-bA]
interaction score (4H741-bA): 0.341

Binder: DEIAQLKQKIAELEQEIAELKWENAQLKQ [4H780-bA]
interaction score (4H780-bA): 1.22
interaction score (4H797-bA): -0.749
interaction score (4H855-bA): -0.574
interaction score (4H918-bA): -0.303
interaction score (4H953-bA): -0.243
interaction score (4H968-bA): -1.3

Binder: DEIAALEAKNAALKAKNAALKAKIAALKG [4H510-AA]
interaction score (4H510-AA): -1.44
interaction score (4H775-AA): -1.67
interaction score (4H816-AA): -2
interaction score (4H87-AA): -1.29
interaction score (4H_APH): -2.26
interaction score (4H_BCR): -2.2
interaction score (4H_GCN4): -2.32
interaction score (GCN2_T): -1.77
interaction score (O11-AA): 1.49
interaction score (O13-AA): -1.66
interaction score (O14-AA): 1.32
